Patent US20120082682A1 (GlaxoSmithKline, published 2012)
Blank lines part the entries; values can stand above or below the binder they belong to.

Legend:
[1] = biological target: T1, human IL-13 (recombinant E. coli-expressed) (human, UniProt P35225 35-146); experiment: Biacore T100 SPR, purified mAb captured on anti-human IgG, IL13 analyte, 1:1 fit
T1 construct: also called hIL-13
Excerpt: (§1) Table 1 details the overall affinities (equilibrium dissociation constant KD) for the selected constructs from the ProteOn screen and the T100 run

[2] = biological target: T1, human IL-13 (recombinant E. …); experiment: ProteOn XPR36 SPR, mAb (supernatant) captured on anti-human IgG, IL13 analyte
Protocol: The initial screen of CDRH3 mutants was carried out on the ProteOn XPR36 (Biorad). […] 3M MgCl₂ was used to regenerate the capture surface, removing the bound CDRH3 mutant antibodies ready for another cycle of capture and analyte injection. The data was fitted to the 1:1 model using the software inherent to the machine.
(§2) In light of this, mutations at this residue that were not present in the initial screen were tested using the ProteOn using the same method as described earlier and again using antibodies direct from tissue culture supernatants.

[3] = biological target: T1, human IL-13 (recombinant E. …); experiment: Biacore T100 SPR, mAb (supernatant) captured on anti-human IgG, IL13 analyte, 1:1 fit
Excerpt: as §1

[4] = biological target: T1, human IL-13 (recombinant E. …); experiment: Biacore T100 SPR, mAb captured on anti-human IgG, IL13 analyte
Protocol: as §1, §2

[5] = biological target: T2, human IL-4 (recombinant E. coli-expressed) (human, UniProt P05112 25-153); experiment: direct binding ELISA, plate coated with 5 µg/ml human IL-4, anti-human kappa light chain-HRP detection, absorbance at 490 nm
T2 sequence (looked up): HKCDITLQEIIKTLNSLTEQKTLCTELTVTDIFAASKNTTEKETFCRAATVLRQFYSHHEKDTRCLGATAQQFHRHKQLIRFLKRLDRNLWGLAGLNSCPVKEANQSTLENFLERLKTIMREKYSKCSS
Protocol: An ELISA was performed as described in example 4, coating 96-well high binding plates with 50 μl/well of recombinant E. coli-expressed human IL-4 at 5 μg/ml and incubated at +4° C. overnight.

[6] = biological target: T2, human IL-4 (recombinant E. …); experiment: cell-based or functional assay
[7] = biological target: T1, human IL-13 (recombinant E. …); experiment: Biacore T100 SPR, Protein A capture (CM5), human IL13 analyte, 1:1 fit
Protocol: Protein A was immobilised on a CM5 chip by primary amine coupling; this surface was used as a capture surface for the antibody molecules to be tested. […] All binding curves were double referenced with a 0 nM injection (i.e. buffer alone).
Regeneration of the Protein A surface was with 50 mM NaOH. The assay was run at 25° C. using HBS-EP as running buffer. The data was fitted to 1:1 model inherent to the Biacore T100 analysis software.

[8] = biological target: T2, human IL-4 (recombinant E. …); experiment: direct binding ELISA, plate coated with 5 ug/ml human IL-4, anti-human kappa light chain-HRP detection, absorbance at 490 nm
Protocol: 96-well high binding plates were coated with 5 μg/ml human IL-4 (made at GSK) in NaHCO₃ and stored overnight at 4° C. The plates were washed twice with Tris-Buffered Saline with 0.05% of Tween-20 (TBST). 100 μL of blocking solution (1% BSA in TBST buffer) was added in each well and the plates were incubated for at least one hour at room temperature. The mAbdAbs were successively diluted across the plates in blocking solution. After one hour incubation, the plates were washed three times. Goat anti-human kappa light chain specific peroxidase conjugated antibody (Sigma A7164) was diluted in blocking solution to 1 μg/mL and 50 μL was added to each well. The plates were incubated for one hour. After another three washing steps, 50 μl of OPD (o-phenylenediamine dihydrochloride) SigmaFast substrate solution was added to each well and the reaction was stopped after about 5 minutes by addition of 25 μL of 3M sulphuric acid. Absorbance was read at 490 nm using the VersaMax Tunable Microplate Reader (Molecular Devices) using a basic endpoint protocol.

[9] = biological target: T2, human IL-4 (recombinant E. …); experiment: Biacore T100 SPR, Protein A capture (CM5), human IL4 analyte, 1:1 fit
Protocol: (§3) Protein A was immobilised on a CM5 chip by primary amine coupling; this surface was used as a capture surface for the antibody molecules to be tested.
(§4) All binding curves were double referenced with a 0 nM injection (i.e. buffer alone). Regeneration of the Protein A surface was with 50 mM NaOH. The assay was run at 25° C. using HBS-EP as running buffer. The data was fitted to 1:1 model inherent to the Biacore T100 analysis software.

[10] = biological target: T2, human IL-4 (recombinant E. …); experiment: Biacore T100 SPR, Protein A capture (CM5), 1:1 fit; paragraph 260 calls Table 20 IL13, its footnote and values point to IL4
Protocol: (§5) Protein A was immobilised on a CM5 chip by primary amine coupling; this surface was used as a capture surface for the antibody molecules to be tested. […] Regeneration the Protein A surface was with 50 mM NaOH. The assay was run at 25° C. using HBS-EP as running buffer. The data was fitted to 1:1 model inherent to the Biacore T100 analysis software.

[11] = biological target: T2, human IL-4 (recombinant E. …); experiment: Biacore T100 SPR, Protein A capture (CM5), human IL4 analyte, 1:1 fit; remark: listed apart in the source
Protocol: Purified mAbs and mAbdAb constructs were tested in a BIAcore assay to determine whether the mutation of position 89 had any effect on the binding of the dAb to IL-4.
as §5, with “Regeneration of” for “Regeneration”, “the […]” for “the Protein”, “was achieved using” for “was with”

[12] = biological target: T2, human IL-4 (recombinant E. …); experiment: Biacore T100 SPR, Protein A capture (CM5), human IL4 analyte
Protocol: as §3, §4

[13] = biological target: T2, human IL-4 (recombinant E. …); experiment: Biacore T100 SPR, Protein A capture (CM5), human IL4 analyte, 1:1 fit; footnote: rates not measurable
Protocol: as §3, §4

[14] = biological target: T2, human IL-4 (recombinant E. …); experiment: Biacore T100 SPR, Protein A capture (C1 chip), human IL4 analyte, 1:1 fit
Protocol: as §5, with “Cl” for “CM5”, “100” for “50”, “Phosphoric acid.” for “NaOH.”

[15] = biological target: T2, human IL-4 (recombinant E. …); experiment: Biacore T100 SPR, Protein A capture (C1 chip), human IL4 analyte, 1:1 fit; on-rate beyond the sensitivity of Biacore (footnote)
Protocol: as §5, with “Cl” for “CM5”, “100” for “50”, “Phosphoric acid.” for “NaOH.”

T1 sequence (P35225 other isoform, or with tags, fused parts or gaps limits assumed): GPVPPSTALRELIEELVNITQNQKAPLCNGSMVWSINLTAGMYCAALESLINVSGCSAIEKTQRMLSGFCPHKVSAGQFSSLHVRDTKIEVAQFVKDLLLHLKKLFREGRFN

Kd [1]: 0.027 nM
koff [1]: 2.12e-05 s⁻¹
kon [1]: 776000 M⁻¹ s⁻¹
Kd [2]: 0.166 nM
Kd [3]: 0.034 nM
koff [3]: 3.45e-05 s⁻¹
kon [3]: 1.02e+06 M⁻¹ s⁻¹
Kd [4]: 0.025 nM
binding result [5]: no binding (tested: 10 µg/ml)
B1: A1Y100B ValL1 (antibody, human IgG1, kappa, V domains shown)
VH: QVQLVQSGAEVKKPGSSVKVSCKASGFYIKDTYMHWVRQAPGQGLEWMGTIDPANGNTKYVPKFQGRVTITADESTSTAYMELSSLRSEDTAVYYCARSIYDDYHVDDYYAMDYWGQGTLVTVSS
VL: DIVMTQSPLSLPVTPGEPASISCRSSQNIVHINGNTYLEWYLQKPGQSPRLLIYKISDRFSGVPDRFSGSGSGTDFTLKISRVEADDVGIYYCFQGSHVPWTFGQGTKLEIKR
notes: CDRH3 variant of A1L1; also called A1Y100BVAL1; 829 (mAb)

binding result [12]: no binding (tested: IL4 up to 64 nM)
B3: BPC1113 (bispecific antibody, human IgG1, kappa)
heavy: not shown
light: DIVMTQSPLSLPVTPGEPASISCRSSQNIVHINGNTYLEWYLQKPGQSPRLLIYKISDRFSGVPDRFSGSGSGTDFTLKISRVEADDVGIYYCFQGSHVPWTFGQGTKLEIKRTVAAPSVFIFPPSDEQLKSGTASVVCLLNNFYPREAKVQWKVDNALQSGNSQESVTEQDSKDSTYSLSSTLTLSKADYEKHKVYACEVTHQGLSSPVTKSFNRGEC
notes: mAbdAb; dAb Kabat 89 D; also called 829H-(TVAAPS)2GS-154 (89D)

binding result [12]: no binding (tested: IL4 up to 64 nM)
B4: BPC1119 (bispecific antibody, human IgG1, kappa)
heavy: not shown
light: DIVMTQSPLSLPVTPGEPASISCRSSQNIVHINGNTYLEWYLQKPGQSPRLLIYKISDRFSGVPDRFSGSGSGTDFTLKISRVEADDVGIYYCFQGSHVPWTFGQGTKLEIKRTVAAPSVFIFPPSDEQLKSGTASVVCLLNNFYPREAKVQWKVDNALQSGNSQESVTEQDSKDSTYSLSSTLTLSKADYEKHKVYACEVTHQGLSSPVTKSFNRGEC
notes: mAbdAb; dAb Kabat 89 P; also called 829H-(TVAAPS)2GS-154 (89P)

Second part, the binder before the results:

B2: BPC1085 (bispecific antibody, human IgG1, kappa)
heavy: not shown
light: DIVMTQSPLSLPVTPGEPASISCRSSQNIVHINGNTYLEWYLQKPGQSPRLLIYKISDRFSGVPDRFSGSGSGTDFTLKISRVEADDVGIYYCFQGSHVPWTFGQGTKLEIKRTVAAPSVFIFPPSDEQLKSGTASVVCLLNNFYPREAKVQWKVDNALQSGNSQESVTEQDSKDSTYSLSSTLTLSKADYEKHKVYACEVTHQGLSSPVTKSFNRGEC
notes: also called 829H-GS(TVAAPSGS)2-154 (89Q)
Mean ND50 value (nM), TF-1 cell proliferation bioassay [6]: 9.21 nM
Kd [7]: 0.073 nM
EC50 (read off the curve) [8]: ~4 nM
Kd [9]: 0.078 nM
Kd [10]: 0.048 nM
Kd [11]: 0.052 nM

B5: BPC1112 (bispecific antibody, human IgG1, kappa)
heavy: not shown
light: DIVMTQSPLSLPVTPGEPASISCRSSQNIVHINGNTYLEWYLQKPGQSPRLLIYKISDRFSGVPDRFSGSGSGTDFTLKISRVEADDVGIYYCFQGSHVPWTFGQGTKLEIKRTVAAPSVFIFPPSDEQLKSGTASVVCLLNNFYPREAKVQWKVDNALQSGNSQESVTEQDSKDSTYSLSSTLTLSKADYEKHKVYACEVTHQGLSSPVTKSFNRGEC
notes: mAbdAb; dAb Kabat 89 K; also called 829H-(TVAAPS)2GS-154 (89K)
Kd [13]: 29 nM
koff [13]: 3.31 s⁻¹

B6: BPC2223 (bispecific antibody, human IgG1, kappa)
heavy: not shown
light: DIVMTQSPLSLPVTPGEPASISCRSSQNIVHINGNTYLEWYLQKPGQSPRLLIYKISDRFSGVPDRFSGSGSGTDFTLKISRVEADDVGIYYCFQGSHVPWTFGQGTKLEIKRTVAAPSVFIFPPSDEQLKSGTASVVCLLNNFYPREAKVQWKVDNALQSGNSQESVTEQDSKDSTYSLSSTLTLSKADYEKHKVYACEVTHQGLSSPVTKSFNRGEC
notes: mAbdAb with the original CDRH3 and the unmutated DOM9-155-154 dAb
Kd [11]: 0.01 nM
Kd [14]: 0.018 nM

B7: BPC2231 (bispecific antibody, human IgG1, kappa)
heavy: not shown
light: DIVMTQSPLSLPVTPGEPASISCRSSQNIVHINGNTYLEWYLQKPGQSPRLLIYKISDRFSGVPDRFSGSGSGTDFTLKISRVEADDVGIYYCFQGSHVPWTFGQGTKLEIKRTVAAPSVFIFPPSDEQLKSGTASVVCLLNNFYPREAKVQWKVDNALQSGNSQESVTEQDSKDSTYSLSSTLTLSKADYEKHKVYACEVTHQGLSSPVTKSFNRGEC
notes: as for B6
EC50 (read off the curve) [8]: ~3 nM
Kd [15]: 6 pM
Kd [10]: 0.002 nM
